Laboratory results from patent US20230064978A1, “CYCLIC PEPTIDE RECEPTOR LANTHIONINE SYNTHETASE C-LIKE PROTEIN (LANCL) AND USES THEREOF” (LATERAL IP PTY LTD, priority 2019, published 2023).
“Also recorded” adds a separate entry of the source. Bridges are numbered along the chain shown (N, C = ends). Where no end group is shown, it is not given here.

How the values were obtained:
human recombinant LANCL1 = target: T1, human recombinant LANCL1 (Homo sapiens, UniProt O43813); assay: In-gel fluorescence: photolabelling of recombinant LANCL1 with PAL probes, with or without excess competitor; assay type: binding
T1 construct: purchased ABCAM ab181923; host or cells: E. coli
T1 sequence (O43813 with tags, fused parts or gaps): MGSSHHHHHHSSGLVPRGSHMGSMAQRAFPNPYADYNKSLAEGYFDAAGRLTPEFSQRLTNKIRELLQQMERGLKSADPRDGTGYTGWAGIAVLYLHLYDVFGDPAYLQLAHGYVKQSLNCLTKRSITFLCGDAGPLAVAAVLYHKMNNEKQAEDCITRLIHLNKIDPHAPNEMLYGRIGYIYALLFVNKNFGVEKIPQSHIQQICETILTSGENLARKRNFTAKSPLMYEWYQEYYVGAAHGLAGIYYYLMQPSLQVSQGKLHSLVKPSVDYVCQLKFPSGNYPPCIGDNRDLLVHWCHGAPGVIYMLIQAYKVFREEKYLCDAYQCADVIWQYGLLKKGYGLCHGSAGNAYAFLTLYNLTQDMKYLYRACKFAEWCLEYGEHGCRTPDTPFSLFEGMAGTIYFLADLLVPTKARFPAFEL
Procedure: The in-gel fluorescence protocol can be briefly described as follows:
1. LANCL1 Labelling, Assay on 96 Well Plate, Volume of the Reaction 40 μl in PBS
3 μg/well of human recombinant LANCL1 (ABCAM catalog no. ab181923, 1 mg/ml; expressed in E. Coli and incorporating an N-terminal 23 amino acid hexaHis tag; UniProtKB/Swiss-Prot Accession no: O43813);
• Vehicle DMSO • ±LAT8881 (a cyclic peptide fragment of human growth hormone; SEQ ID NO:1) • SEQ ID NO:1) as competitor @ 25, 50, 100 or 200 μM, pre-incubation 10 min, 4 μl of a stock solution 10-fold concentrated • ±LAT9991-PAL, LAT7771-PAL or LAT9993-PAL probes @ 1 μM, incubation 30 min at room temperature on a plate agitator (protected from light), 4 μl of a stock solution @10 μM
• Irradiation @ 365 nm 20 min (4° C., on a support containing ice) Transfer 40 μl in a clean Eppendorf tube
• Reduction: DTT 10 mM, 30 min @ 56° C. • Alkylation: Iodoacetamide 30 mM, 45 min @ RT Click-iT AzideTamra of 60 μL samples
(§1) • Acetone Precipitation −20° C. ON • Dry pellet resuspended in 30 μL 1% SDS in 50 mM Tris-HCl pH 7.5 • Photolabeled LANCL1 was tagged with tetramethylrhodamine (TAMRA) azide @100 μM TAMRA azide by copper click chemistry using the Click-iT Protein Reaction Buffer Kit (ThermoFisher Scientific) during 30 minutes • Precipitation using the chloroform-methanol method, pellet was air-dried for 10 min at room temperature, resuspended in 30 μL SDS loading buffer (Bio Rad's XT Sample Buffer containing 2.5% v/v 2-mercaptoethanol) and heated (60° C., 30 min)
(§2) • SDS-PAGE (4-15% Criterion™ TGX Stain-Free™ Protein Gel, Bio Rad) • Analyzed by in-gel fluorescence scanning using a ChemiDoc™ MP Imaging System (Bio Rad) with a green LED light as an excitation source and a BP600/20 nm emission filter

human recombinant LANCL2 = target: T2, human recombinant LANCL2 (Homo sapiens, UniProt Q9NS86); assay: In-gel fluorescence: photolabelling of recombinant LANCL2 with PAL probe, with or without excess LAT8881; assay type: binding
T2 construct: human recombinant LANCL2 (amino acid residues 1-450); GST (N); purchased ABCAM ab163277; host or cells: wheat germ
T2 sequence (Q9NS86 1-450): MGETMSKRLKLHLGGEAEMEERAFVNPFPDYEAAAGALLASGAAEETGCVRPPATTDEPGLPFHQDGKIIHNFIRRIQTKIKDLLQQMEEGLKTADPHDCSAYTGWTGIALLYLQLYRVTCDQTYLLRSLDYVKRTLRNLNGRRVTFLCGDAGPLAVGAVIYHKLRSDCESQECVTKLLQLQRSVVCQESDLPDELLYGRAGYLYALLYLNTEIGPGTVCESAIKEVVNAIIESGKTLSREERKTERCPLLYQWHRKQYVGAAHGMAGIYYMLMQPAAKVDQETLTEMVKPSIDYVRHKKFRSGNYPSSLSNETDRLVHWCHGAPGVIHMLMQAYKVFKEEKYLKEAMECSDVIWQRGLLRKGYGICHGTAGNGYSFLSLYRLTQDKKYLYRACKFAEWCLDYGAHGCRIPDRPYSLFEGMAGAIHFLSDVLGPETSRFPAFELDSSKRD
Procedure: An in-gel fluorescence protocol was followed to determine whether the cyclic peptides bound to LANCL2 and LANCL3. Briefly:
1. LANCL2 and LANCL3 Labelling, Assay on 96 Well Plate, Volume of the Reaction 40 μl in PBS
• 1 μg/well of human recombinant LANCL2 (amino acid residues 1-450; ABCAM catalog no. ab163277, ˜0.07 mg/ml; expressed in wheat germ and incorporating an N-terminal GST tag; UniProt Accession no: Q9NS86);
• Vehicle DMSO • ±LAT8881 (a cyclic peptide fragment of human growth hormone; SEQ ID NO:1) • SEQ ID NO:1 as competitor @ 50, 100 or 200 μM, pre-incubation 10 min, 4 μl of a stock solution 10-fold concentrated • ±LAT9991-PAL probes @ 1 μM, incubation 30 min at room temperature on a plate agitator (protected from light), 4 μl of a stock solution @10 μM
• Irradiation @ 365 nm 20 min (4° C., on a support containing ice) • Transfer 40 μl in a clean Eppendorf tube
• Reduction: DTT 10 mM, 30 min @ 56° C. • Alkylation: Iodoacétamide 30 mM, 45 min @ RT Click-iT AzideTamra of 60 μL samples
as §1, with “for” for “during”, “Rad” for “Rad's”
as §2

[1] = tested on: tissue homogenates of nerve from neuropathic animals; assay: PAL cross-linking to nerve tissue homogenates and gel separation; assay type: binding
From the text: Using a ligand driven approach, the present inventors utilized the photo-activatable cross-linking PAL from Evotec A.G. (Photo-Activated Labelling) technology that derivatizes the active cyclic peptides to allow UV-induced cross-linking to binding targets (described herein as peptide/SEQ ID NO:X-PAL). This allows subsequent detection in cells, gels of tissue isolates or in pull-down of the peptide/target complex for sequencing by mass spectroscopy (PALMS).
LAT9991-PAL was cross-linked to tissue homogenates of nerve from neuropathic animals.

spinal cord slice model = assay: Spinal cord slice model; conditions: data not shown

Row | Substance | Inhibition of LAT7771-PAL binding to recombinant LANCL1 by excess competitor (human recombinant LANCL1; probe LAT7771-PAL, excess LAT8881) | Inhibition of LAT9991-PAL binding to recombinant LANCL1 by excess competitor (human recombinant LANCL1; probe LAT9991-PAL, excess unlabelled competitor) | Inhibition of LAT9993S-PAL binding to recombinant LANCL1 by excess competitor (human recombinant LANCL1; probe LAT9993S-PAL, excess LAT8881) | Inhibition of LAT7771-PAL binding to recombinant LANCL2 by excess competitor (human recombinant LANCL2; probe LAT7771-PAL (as in FIG. 10 legend), excess LAT8881) | Inhibition of LAT9991-PAL binding to LANCL2 by excess competitor (human recombinant LANCL2; probe LAT9991-PAL, excess LAT8881) | Cross-linking of PAL probe to tissue homogenates of nerve from neuropathic animals [1] | Molecular weight ranges of targets stained after gel separation ([1]; FIG. 3 legend, LAT9991-PAL 5 μM) | Molecular weight ranges of targets stained after gel separation ([1]; PAL probe cross-linked to nerve homogenates) | Binding of PAL probe to recombinant LANCL1 (human recombinant LANCL1; in-gel fluorescence after UV (365 nm) cross-linking) | Activity on the spinal cord slice model (spinal cord slice model) | Binding of PAL probe to recombinant LANCL2 (human recombinant LANCL2; in-gel fluorescence after UV cross-linking)
1 | YLRIVQCRSVEGSCGF [LAT8881, a cyclic peptide fragment of human growth hormone] | inhibited | inhibited | inhibited | inhibited | inhibited |  |  |  |  |  | 
2 | LAT9991-PAL: cyclic peptide of SEQ ID NO:12 (LAT9991) conjugated to the PAL (Photo-Activated Labelling) grouping (CRSVEGSCG; disulfide 1-8 (inferred); also: PAL group on N-terminal Cys-Arg part) |  |  |  |  |  | cross-linked; also recorded: shown to cross-link | 12-15 kDa, 37 kDa and 40-50 kDa | ˜12-15 kD, ˜37 kD and ˜50 kD | bound to recombinant LANCL1 | fully active | binds
